Data as given in patent publication US20100183625A1, “Treatment of Mucositis with Kallikrein Inhibitors” (Dyax Corp., priority 2009, published 2010).
Positions count from the first letter of the chain named.

B1: X66-G08: single point mutation of M142-H08 (P1); HV-CDR3 GGLLLWFYELKSNYFDY (antibody, V domains shown)
VL: QDIQMTQSPSSLSAFVGDRVTITCRASQPIDNYLNWYHQKPGKAPKLLIYAASRLQSGVPSRLSGSGFGTDFTLTISSLQPEDFGNYYCQQSYTVPYTFGGGTKVEIR
VH: EVQLLESGGGLVQPGGSLRLSCAASGFTFSAYSMIWVRQAPGKGLEWVSYIRPSGGRTTYADSVKGRFTISRDNSKNTLYLQMNSLRAEDTAVYYCARGGLLLWFYELKSNYFDYWGQGTLVTVSSASTKGPSVFPLAPSSKS
B2: X68-E01: single point mutation of M142-H08 (P3); HV-CDR3 GGLLLLFRELKSNYFDY (antibody, V domains shown)
VL: B1 VL
VH: B1 VH with W104L, Y106R
B3: X69-C12: single point mutation of M142-H08 (P1′); HV-CDR3 GGLLLWFRVLKSNYFDY (antibody, V domains shown)
VL: B1 VL
VH: B1 VH with Y106R, E107V
B4: X69-F01: single point mutation of M142-H08 (P1′); HV-CDR3 GGLLLWFRTLKSNYFDY (antibody, V domains shown)
VL: B1 VL
VH: B1 VH with G42S, Y106R, E107T
B5: X69-D09: single point mutation of M142-H08 (P1′); HV-CDR3 GGLLLWFRGLKSNYFDY (antibody, V domains shown)
VL: B1 VL
VH: B1 VH with Y106R, E107G
B6: X69-A12: single point mutation of M142-H08 (P1′); HV-CDR3 GGLLLWFRKLKSNYFDY (antibody, V domains shown)
VL: B1 VL
VH: B1 VH with Y106R, E107K
B7: X69-E05: single point mutation of M142-H08 (P1′); HV-CDR3 GGLLLWFRRLKSNYFDY (antibody, V domains shown)
VL: B1 VL
VH: B1 VH with Y106R, E107R
B8: X69-A10: single point mutation of M142-H08 (P1′); HV-CDR3 GGLLLWFRPLKSNYFDY (antibody, V domains shown)
VL: B1 VL
VH: B1 VH with Y106R, E107P
B9: X69-H10: single point mutation of M142-H08 (P1′); HV-CDR3 GGLLLWFRYLKSNYFDY (antibody, V domains shown)
VL: B1 VL
VH: B1 VH with Y106R, E107Y
B10: X69-D08: single point mutation of M142-H08 (P1′); HV-CDR3 GGLLLWFRALKSNYFDY (antibody, V domains shown)
VL: B1 VL
VH: B1 VH with Y106R, E107A
B11: X69-F05: single point mutation of M142-H08 (P1′); HV-CDR3 GGLLLWFRLLKSNYFDY (antibody, V domains shown)
VL: B1 VL
VH: B1 VH with Y106R, E107L
B12: X69-F09: single point mutation of M142-H08 (P1′); HV-CDR3 GGLLLWFRSLKSNYFDY (antibody, V domains shown)
VL: B1 VL
VH: B1 VH with G42S, Y106R, E107S
B13: X68-A12: single point mutation of M142-H08 (P3); HV-CDR3 GGLLLGFRELKSNYFDY (antibody, V domains shown)
VL: B1 VL
VH: B1 VH with W104G, Y106R
B14: X69-B02: single point mutation of M142-H08 (P1′); HV-CDR3 GGLLLWFRCLKSNYFDY (antibody, V domains shown)
VL: B1 VL
VH: B1 VH with Y106R, E107C
B15: X69-A09: single point mutation of M142-H08 (P1′); HV-CDR3 … (antibody, V domains shown)
VL: B1 VL
VH: B1 VH with Y106R, E107S
B16: X68-A03: single point mutation of M142-H08 (P3); HV-CDR3 GGLLLDFRELKSNYFDY (antibody, V domains shown)
VL: B1 VL with G85S
VH: B1 VH with W104D, Y106R
B17: X69-B08: single point mutation of M142-H08 (P1′); HV-CDR3 GGLLLWFRNLKSNYFDY (antibody, V domains shown)
VL: B1 VL
VH: B1 VH with Y106R, E107N
B18: X69-D02: single point mutation of M142-H08 (P1′); HV-CDR3 GGLLLWFRHLKSNYFDY (antibody, V domains shown)
VL: B1 VL
VH: B1 VH with Y106R, E107H
B19: X68-E03: single point mutation of M142-H08 (P3); HV-CDR3 GGLLLEFRELKSNYFDY (antibody, V domains shown)
VL: B1 VL
VH: B1 VH with W104E, Y106R
B20: X68-D11: single point mutation of M142-H08 (P3); HV-CDR3 GGLLLKFRELKSNYFDY (antibody, V domains shown)
VL: B1 VL
VH: B1 VH with W104K, Y106R
B21: X68-E12: single point mutation of M142-H08 (P3); HV-CDR3 GGLLLCFRELKSNYFDY (antibody, V domains shown)
VL: B1 VL
VH: B1 VH with W104C, Y106R
B22: X69-E01: single point mutation of M142-H08 (P1′); HV-CDR3 GGLLLWFRWLKSNYFDY (antibody, V domains shown)
VL: B1 VL
VH: B1 VH with Y106R, E107W

The molecules below were run against T1, pKal (Homo sapiens, UniProt P03952) (assay: Fab fragments (small scale) tested for inhibition against human pKal in an in vitro protease cleavage assay). Details: Table 9.
T1 construct: two disulfide linked polypeptides; a heavy chain of approximately 52 kDa and a catalytic domain of approximately 34 kDa; host or cells: human plasma
T1 sequence (P03952 391-638 limits assumed): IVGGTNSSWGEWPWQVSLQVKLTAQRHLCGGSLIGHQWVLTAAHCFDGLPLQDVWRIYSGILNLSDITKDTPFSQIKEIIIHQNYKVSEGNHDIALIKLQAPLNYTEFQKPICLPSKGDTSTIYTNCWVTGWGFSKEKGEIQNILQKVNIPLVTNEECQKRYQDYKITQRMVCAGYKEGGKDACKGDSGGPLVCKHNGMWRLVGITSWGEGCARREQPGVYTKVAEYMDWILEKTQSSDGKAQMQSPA
T1 sequence (P03952 20-390 partner limits assumed): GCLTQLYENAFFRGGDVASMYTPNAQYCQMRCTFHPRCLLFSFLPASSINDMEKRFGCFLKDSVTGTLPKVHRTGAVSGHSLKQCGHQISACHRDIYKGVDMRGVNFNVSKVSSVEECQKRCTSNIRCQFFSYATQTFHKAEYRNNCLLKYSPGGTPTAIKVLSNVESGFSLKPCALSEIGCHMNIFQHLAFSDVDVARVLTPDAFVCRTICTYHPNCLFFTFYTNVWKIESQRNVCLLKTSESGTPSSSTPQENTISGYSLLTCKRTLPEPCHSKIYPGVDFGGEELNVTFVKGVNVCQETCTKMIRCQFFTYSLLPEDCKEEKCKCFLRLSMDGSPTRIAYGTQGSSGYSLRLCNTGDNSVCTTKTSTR
Type: biochemical
Description: By DNA sequencing, we recovered 61 of the possible 80 antibodies (Table 9). These antibodies were produced as Fab fragments in small scale (˜20 μg) and tested for inhibition against human pKal in an in vitro protease cleavage assay using Pro-Phe-Arg-aminomethylcoumarin as the synthetic peptide substrate. […] Five antibodies were then expressed in 293T cells and purified by protein A sepharose chromatography. The antibodies were analyzed by SDS-PAGE to determine which of the inhibitory mutants are not cleaved by the host cell protease(s) (data not shown).

Molecule | Inhibit as a Fab?
B1 | No
B2 | Yes
B3 | Yes
B4 | Yes
B5 | Yes
B6 | No
B7 | No
B8 | No
B9 | No
B10 | No
B11 | Yes
B12 | Yes
B13 | No
B14 | No
B15 | Yes
B16 | No
B17 | Yes
B18 | No
B19 | No
B20 | No
B21 | No
B22 | Yes
